Laboratory results published in patent US20220281951A1 (ACCELERON PHARMA, published 2022).

T1: GDF-11 (UniProt O95390 299-407)
T1 sequence (looked up): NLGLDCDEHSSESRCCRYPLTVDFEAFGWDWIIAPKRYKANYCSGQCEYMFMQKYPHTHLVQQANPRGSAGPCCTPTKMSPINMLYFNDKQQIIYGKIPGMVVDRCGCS

T2: Activin A (UniProt P08476 311-426)
T2 sequence (looked up): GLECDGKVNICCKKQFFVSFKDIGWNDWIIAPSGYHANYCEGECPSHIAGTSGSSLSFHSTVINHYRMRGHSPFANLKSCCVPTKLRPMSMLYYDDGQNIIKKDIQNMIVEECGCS

T3: GDF8 (UniProt O14793 267-375)
T3 construct: also called myostatin; Growth and Differentiation Factor-8
T3 sequence (looked up): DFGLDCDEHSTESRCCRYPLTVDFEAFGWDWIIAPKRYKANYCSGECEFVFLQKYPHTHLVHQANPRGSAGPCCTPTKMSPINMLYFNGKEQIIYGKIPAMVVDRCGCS

B1: ActRIIb-hFc (R64, 20-128) (Fc fusion)
chain: GRGEAETRECIYYNANWELERTNQSGLERCEGEQDKRLHCYASWRNSSGTIELVKKGCWLDDFNCYDRQECVATEENPQVYFCCCEGNFCNERFTHLPEAGGPEVTYEPGGGTHTCPPCPAPELLGGPSVFLFPPKPKDTLMISRTPEVTCVVVDVSHEDPEVKFNWYVDGVEVHNAKTKPREEQYNSTYRVVSVLTVLHQDWLNGKEYKCKVSNKALPVPIEKTISKAKGQPREPQVYTLPPSREEMTKNQVSLTCLVKGFYPSDIAVEWESNGQPENNYKTTPPVLDSDGSFFLYSKLTVDKSRWQQGNVFSCSVMHEALHNHYTQKSLSLSPGK
B2: ActRIIb-hFc (R64, 20-131) (Fc fusion)
chain: GRGEAETRECIYYNANWELERTNQSGLERCEGEQDKRLHCYASWRNSSGTIELVKKGCWLDDFNCYDRQECVATEENPQVYFCCCEGNFCNERFTHLPEAGGPEVTYEPPPTGGGTHTCPPCPAPELLGGPSVFLFPPKPKDTLMISRTPEVTCVVVDVSHEDPEVKFNWYVDGVEVHNAKTKPREEQYNSTYRVVSVLTVLHQDWLNGKEYKCKVSNKALPVPIEKTISKAKGQPREPQVYTLPPSREEMTKNQVSLTCLVKGFYPSDIAVEWESNGQPENNYKTTPPVLDSDGSFFLYSKLTVDKSRWQQGNVFSCSVMHEALHNHYTQKSLSLSPGK
B3: ActRIIb-hFc (R64, 20-132) (Fc fusion)
chain: GRGEAETRECIYYNANWELERTNQSGLERCEGEQDKRLHCYASWRNSSGTIELVKKGCWLDDFNCYDRQECVATEENPQVYFCCCEGNFCNERFTHLPEAGGPEVTYEPPPTAGGGTHTCPPCPAPELLGGPSVFLFPPKPKDTLMISRTPEVTCVVVDVSHEDPEVKFNWYVDGVEVHNAKTKPREEQYNSTYRVVSVLTVLHQDWLNGKEYKCKVSNKALPVPIEKTISKAKGQPREPQVYTLPPSREEMTKNQVSLTCLVKGFYPSDIAVEWESNGQPENNYKTTPPVLDSDGSFFLYSKLTVDKSRWQQGNVFSCSVMHEALHNHYTQKSLSLSPGK
B4: ActRIIb-hFc (R64, 21-131) (Fc fusion)
chain: RGEAETRECIYYNANWELERTNQSGLERCEGEQDKRLHCYASWRNSSGTIELVKKGCWLDDFNCYDRQECVATEENPQVYFCCCEGNFCNERFTHLPEAGGPEVTYEPPPTGGGTHTCPPCPAPELLGGPSVFLFPPKPKDTLMISRTPEVTCVVVDVSHEDPEVKFNWYVDGVEVHNAKTKPREEQYNSTYRVVSVLTVLHQDWLNGKEYKCKVSNKALPVPIEKTISKAKGQPREPQVYTLPPSREEMTKNQVSLTCLVKGFYPSDIAVEWESNGQPENNYKTTPPVLDSDGSFFLYSKLTVDKSRWQQGNVFSCSVMHEALHNHYTQKSLSLSPGK
B5: ActRIIb-hFc (R64, 22-131) (Fc fusion)
chain: GEAETRECIYYNANWELERTNQSGLERCEGEQDKRLHCYASWRNSSGTIELVKKGCWLDDFNCYDRQECVATEENPQVYFCCCEGNFCNERFTHLPEAGGPEVTYEPPPTGGGTHTCPPCPAPELLGGPSVFLFPPKPKDTLMISRTPEVTCVVVDVSHEDPEVKFNWYVDGVEVHNAKTKPREEQYNSTYRVVSVLTVLHQDWLNGKEYKCKVSNKALPVPIEKTISKAKGQPREPQVYTLPPSREEMTKNQVSLTCLVKGFYPSDIAVEWESNGQPENNYKTTPPVLDSDGSFFLYSKLTVDKSRWQQGNVFSCSVMHEALHNHYTQKSLSLSPGK
B6: ActRIIb-hFc (R64, 23-131) (Fc fusion)
chain: EAETRECIYYNANWELERTNQSGLERCEGEQDKRLHCYASWRNSSGTIELVKKGCWLDDFNCYDRQECVATEENPQVYFCCCEGNFCNERFTHLPEAGGPEVTYEPPPTGGGTHTCPPCPAPELLGGPSVFLFPPKPKDTLMISRTPEVTCVVVDVSHEDPEVKFNWYVDGVEVHNAKTKPREEQYNSTYRVVSVLTVLHQDWLNGKEYKCKVSNKALPVPIEKTISKAKGQPREPQVYTLPPSREEMTKNQVSLTCLVKGFYPSDIAVEWESNGQPENNYKTTPPVLDSDGSFFLYSKLTVDKSRWQQGNVFSCSVMHEALHNHYTQKSLSLSPGK
B7: ActRIIb-hFc (R64, 24-131) (Fc fusion)
chain: AETRECIYYNANWELERTNQSGLERCEGEQDKRLHCYASWRNSSGTIELVKKGCWLDDFNCYDRQECVATEENPQVYFCCCEGNFCNERFTHLPEAGGPEVTYEPPPTGGGTHTCPPCPAPELLGGPSVFLFPPKPKDTLMISRTPEVTCVVVDVSHEDPEVKFNWYVDGVEVHNAKTKPREEQYNSTYRVVSVLTVLHQDWLNGKEYKCKVSNKALPVPIEKTISKAKGQPREPQVYTLPPSREEMTKNQVSLTCLVKGFYPSDIAVEWESNGQPENNYKTTPPVLDSDGSFFLYSKLTVDKSRWQQGNVFSCSVMHEALHNHYTQKSLSLSPGK
B8: ActRIIb-hFc (R64, 20-134) (Fc fusion)
chain: GRGEAETRECIYYNANWELERTNQSGLERCEGEQDKRLHCYASWRNSSGTIELVKKGCWLDDFNCYDRQECVATEENPQVYFCCCEGNFCNERFTHLPEAGGPEVTYEPPPTAPTGGGTHTCPPCPAPELLGGPSVFLFPPKPKDTLMISRTPEVTCVVVDVSHEDPEVKFNWYVDGVEVHNAKTKPREEQYNSTYRVVSVLTVLHQDWLNGKEYKCKVSNKALPVPIEKTISKAKGQPREPQVYTLPPSREEMTKNQVSLTCLVKGFYPSDIAVEWESNGQPENNYKTTPPVLDSDGSFFLYSKLTVDKSRWQQGNVFSCSVMHEALHNHYTQKSLSLSPGK

Molecular target: T1, GDF-11
Assay: cell-based or functional assay

**Q.** B1 was tested. Which “IC50 (ng/mL), A-204 reporter gene assay, conditioned media” value (from here on “IC50 (ng/mL), A-204 reporter gene assay”) did it give?
**A.** 130 ng/mL

**Q.** For B2, which “IC50 (ng/mL), A-204 reporter gene assay” value is on record?
**A.** 120 ng/mL

**Q.** B3 was tested. Which “IC50 (ng/mL), A-204 reporter gene assay” value did it give?
**A.** 87 ng/mL

Molecular target: T2, Activin A
Assay: cell-based or functional assay

**Q.** Which “IC50 (ng/mL), A-204 reporter gene assay” value does the source give for B1 here?
**A.** 158 ng/mL

**Q.** For B2, which “IC50 (ng/mL), A-204 reporter gene assay” value is on record?
**A.** 44 ng/mL

**Q.** For B3, which “IC50 (ng/mL), A-204 reporter gene assay” value is on record?
**A.** 32 ng/mL

Molecular target: T1, GDF-11
Assay: cell-based or functional assay
Remark: another data set of the same source

**Q.** With B2 as the binder, how does the “IC50 (ng/mL), A-204 reporter gene assay” value read?
**A.** 183 ng/mL

**Q.** B4 was tested. Which “IC50 (ng/mL), A-204 reporter gene assay” value did it give?
**A.** 121 ng/mL

**Q.** For B5, which “IC50 (ng/mL), A-204 reporter gene assay” value is on record?
**A.** 71 ng/mL

**Q.** How did the “IC50 (ng/mL), A-204 reporter gene assay” value turn out when B6 was run?
**A.** 60 ng/mL

**Q.** For B7, which “IC50 (ng/mL), A-204 reporter gene assay” value is on record?
**A.** 69 ng/mL

Molecular target: T2, Activin A
Assay: cell-based or functional assay
Remark: another data set of the same source

**Q.** With B2 as the binder, how does the “IC50 (ng/mL), A-204 reporter gene assay” value read?
**A.** 201 ng/mL

**Q.** For B4, which “IC50 (ng/mL), A-204 reporter gene assay” value is on record?
**A.** 325 ng/mL

**Q.** B5 was tested. Which “IC50 (ng/mL), A-204 reporter gene assay” value did it give?
**A.** 100 ng/mL

**Q.** With B6 as the binder, how does the “IC50 (ng/mL), A-204 reporter gene assay” value read?
**A.** 43 ng/mL

**Q.** Which “IC50 (ng/mL), A-204 reporter gene assay” value does the source give for B7 here?
**A.** 105 ng/mL

Molecular target: T3, GDF8
Assay: BiaCore SPR; ActRIIB-Fc captured by anti-hFc antibody, ligand injected
Description: The ActRIIB-Fc variants or wild-type protein were captured onto the system using an anti-hFc antibody. Ligands were injected and flowed over the captured receptor proteins.

**Q.** Which kon does the source give for B8 here?
**A.** 369000 M⁻¹ s⁻¹
